From US20220119534A1 (DRAGONFLY THERAPEUTICS, published 2022)

Key:
[1] = target: T1, Human CLEC12A-His (human, UniProt Q5QGZ9 65-265); assay: SPR Biacore 8K 37 C; TriNKET captured on anti-hFc chip, hCLEC12A-His as analyte; 1:1 fit; after 2 wks 25 C in CST pH 7.0, n=2
T1 construct: Recombinant soluble protein made in house (Dragonfly Tx); The hCLEC12A spot of the HuProt array is written under this molecule as well; also called hCLEC12A-His; hCLEC12A; not shown: His tag
T1 sequence: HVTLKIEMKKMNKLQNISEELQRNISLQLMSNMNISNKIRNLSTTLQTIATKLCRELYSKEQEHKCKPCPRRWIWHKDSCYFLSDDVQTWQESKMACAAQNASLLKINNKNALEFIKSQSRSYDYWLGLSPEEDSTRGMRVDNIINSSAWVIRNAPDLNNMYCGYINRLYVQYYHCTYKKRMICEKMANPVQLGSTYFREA

[2] = target: T1, Human CLEC12A-His; assay: SPR Biacore 8K 37 C; TriNKET captured on anti-hFc chip, hCLEC12A-His as analyte; 1:1 fit; control sample, n=2
Procedure: Briefly, human Fc specific antibodies were covalently immobilized at a density ˜8000-10000 resonance units (RU) on carboxy methyl dextran matrix of a CM5 biosensor chip via amine-coupling chemistry to create an anti-hFc IgG chip. […] Association was monitored for 300 seconds and dissociation was monitored for 600 seconds. Surfaces were regenerated between cycles with three pulses of 10 mM glycine-HCl, pH 1.7 injected for 20 seconds at 100 μL/min. HBS-EP+ (1×) with 0.1 mg/mL BSA buffer was used throughout the experiment. Data were analyzed using Biacore 8K Insight evaluation software (GE Healthcare). The kinetic rate constants and overall affinity were obtained using 1:1 kinetic fit binding model (FIGS. 71A-71B).

Kd [1]: 0.93 nM
koff [1]: 0.000765 s⁻¹
kon [1]: 824000 M⁻¹ s⁻¹
Kd [2]: 0.98 nM
koff [2]: 0.000735 s⁻¹
kon [2]: 750000 M⁻¹ s⁻¹
B1: F3'-1602 TriNKET (bispecific antibody, human IgG1, kappa)
chain: QLQLQESGPGLVKPSETLSLTCTVSGFSLTNYGLHWIRQPPGKCLEWIGVIWSGGKTDYNPSLKSRVTISKDTSKNQFSLKLSSVQAADTAVYYCAKYDYDDSLDYWGQGTLVTVSSGGGGSGGGGSGGGGSGGGGSDIQMTQSPSSLSASVGDRVTITCHASQNINFWLSWYQQKPGKAPKLLIYEASNLHTGVPSRFSGSGSGTRFTLTISSLQPEDIATYYCQQSHSYPLTFGCGTKLEIKGSDKTHTCPPCPAPELLGGPSVFLFPPKPKDTLMISRTPEVTCVVVDVSHEDPEVKFNWYVDGVEVHNAKTKPREEQYNSTYRVVSVLTVLHQDWLNGKEYKCKVSNKALPAPIEKTISKAKGQPREPRVYTLPPCRDELTKNQVSLTCLVKGFYPSDIAVEWESNGQPENNYKTTPPVLVSDGSFTLYSKLTVDKSRWQQGNVFSCSVMHEALHNHYTQKSLSLSPG
heavy: EVQLVESGGGLVKPGGSLRLSCAASGFTFSSYSMNWVRQAPGKGLEWVSSISSSSSYIYYADSVKGRFTISRDNAKNSLYLQMNSLRAEDTAVYYCARGAPIGAAAGWFDPWGQGTLVTVSSASTKGPSVFPLAPSSKSTSGGTAALGCLVKDYFPEPVTVSWNSGALTSGVHTFPAVLQSSGLYSLSSVVTVPSSSLGTQTYICNVNHKPSNTKVDKKVEPKSCDKTHTCPPCPAPELLGGPSVFLFPPKPKDTLMISRTPEVTCVVVDVSHEDPEVKFNWYVDGVEVHNAKTKPREEQYNSTYRVVSVLTVLHQDWLNGKEYKCKVSNKALPAPIEKTISKAKGQPREPQVCTLPPSRDELTENQVSLTCLVKGFYPSDIAVEWESNGQPENNYKTTPPVLDSDGSFFLYSWLTVDKSRWQQGNVFSCSVMHEALHNHYTQKSLSLSPG
light: DIQMTQSPSSVSASVGDRVTITCRASQGISSWLAWYQQKPGKAPKLLIYAASSLQSGVPSRFSGSGSGTDFTLTISSLQPEDFATYYCQQGVSFPRTFGGGTKVEIKRTVAAPSVFIFPPSDEQLKSGTASVVCLLNNFYPREAKVQWKVDNALQSGNSQESVTEQDSKDSTYSLSSTLTLSKADYEKHKVYACEVTHQGLSSPVTKSFNRGEC
notes: Trispecific F3' format: CLEC12A scFv-Fc paired with NKG2D Fab-Fc; Stressed and control samples of the stability studies are the same molecule; also called AB0237
